Reference: the supplement of paper PMC10065799, “High-throughput profiling of sequence recognition by tyrosine kinases and SH2 domains using bacterial peptide display” (eLife, 2023)

How the values were obtained:
[1] = molecular target: Grb2 SH2 (UniProt P62993); assay: SH2 binding enrichment of the phosphorylated peptide, bacterial display (enrichment ratio); higher = better substrate or ligand; peptides without Tyr show the background
[2] = molecular target: SHP2-C SH2; assay: as above
[3] = molecular target: c-Src SH2; assay: as above
[4] = molecular target: FGFR1 (UniProt P11362); assay: phosphorylation enrichment, bacterial display (enrichment ratio); higher = better substrate or ligand; peptides without Tyr show the background
[5] = molecular target: Fyn (UniProt P06241); assay: as above
[6] = molecular target: MERTK (UniProt Q12866); assay: as above
[7] = molecular target: EPHB2 (UniProt P29323); assay: as above
[8] = molecular target: FGFR3 (UniProt P22607); assay: as above
[9] = molecular target: EPHB1 (UniProt P54762); assay: as above
[10] = molecular target: Hck (UniProt P08631); assay: as above
[11] = tested on: Fer (mouse); assay: as above
[12] = tested on: AncSZ; assay: as above
[13] = tested on: c-Abl (mouse); assay: as above
[14] = molecular target: Jak2 (UniProt O60674); assay: as above
[15] = tested on: c-Src; assay: as above
[16] = molecular target: Fes (UniProt P07332); assay: as above
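Throughout, for SH2 binding enrichment of the phosphorylated peptide, bacterial display: peptide library displayed on the E. coli surface as eCPX fusions, selected cells deep-sequenced, score is each peptide's frequency after selection divided by its frequency in the input.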
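Throughout, for phosphorylation enrichment, bacterial display: 11-residue human phosphosite peptides and single-mutation variants displayed on the E. coli surface, counted by deep sequencing, each peptide's frequency after selection divided by its frequency in the unselected input library; frequency after pTyr selection over input frequency; kinase dosed for 20-30% of maximal phosphorylation in three min.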

Sequence of EPHB1 (P54762 whole entry, looked up): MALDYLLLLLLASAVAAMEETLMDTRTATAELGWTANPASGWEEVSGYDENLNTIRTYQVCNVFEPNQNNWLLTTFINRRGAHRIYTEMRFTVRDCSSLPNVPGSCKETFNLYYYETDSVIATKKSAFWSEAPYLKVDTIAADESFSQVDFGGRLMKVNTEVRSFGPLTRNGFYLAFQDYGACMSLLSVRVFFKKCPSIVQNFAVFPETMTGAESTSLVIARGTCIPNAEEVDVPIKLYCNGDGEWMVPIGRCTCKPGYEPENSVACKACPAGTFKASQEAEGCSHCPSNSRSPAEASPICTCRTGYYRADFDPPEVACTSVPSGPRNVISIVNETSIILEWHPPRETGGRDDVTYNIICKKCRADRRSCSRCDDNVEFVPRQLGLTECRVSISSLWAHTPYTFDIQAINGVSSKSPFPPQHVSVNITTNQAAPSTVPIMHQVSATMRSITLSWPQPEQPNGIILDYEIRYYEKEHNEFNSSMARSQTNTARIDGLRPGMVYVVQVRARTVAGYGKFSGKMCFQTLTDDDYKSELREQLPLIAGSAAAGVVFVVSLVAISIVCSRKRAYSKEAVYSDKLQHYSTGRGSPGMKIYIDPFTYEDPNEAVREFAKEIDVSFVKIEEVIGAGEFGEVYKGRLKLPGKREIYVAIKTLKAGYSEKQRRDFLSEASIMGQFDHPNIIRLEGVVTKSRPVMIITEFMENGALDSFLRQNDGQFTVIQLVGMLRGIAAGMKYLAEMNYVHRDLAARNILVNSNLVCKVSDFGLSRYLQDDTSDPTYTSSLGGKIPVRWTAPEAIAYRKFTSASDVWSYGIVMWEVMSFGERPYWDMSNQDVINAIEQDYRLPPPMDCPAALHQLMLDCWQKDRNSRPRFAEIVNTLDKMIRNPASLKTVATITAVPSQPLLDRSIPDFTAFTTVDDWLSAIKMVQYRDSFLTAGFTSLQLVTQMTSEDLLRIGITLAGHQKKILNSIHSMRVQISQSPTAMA
Sequence of MERTK (Q12866 whole entry, looked up): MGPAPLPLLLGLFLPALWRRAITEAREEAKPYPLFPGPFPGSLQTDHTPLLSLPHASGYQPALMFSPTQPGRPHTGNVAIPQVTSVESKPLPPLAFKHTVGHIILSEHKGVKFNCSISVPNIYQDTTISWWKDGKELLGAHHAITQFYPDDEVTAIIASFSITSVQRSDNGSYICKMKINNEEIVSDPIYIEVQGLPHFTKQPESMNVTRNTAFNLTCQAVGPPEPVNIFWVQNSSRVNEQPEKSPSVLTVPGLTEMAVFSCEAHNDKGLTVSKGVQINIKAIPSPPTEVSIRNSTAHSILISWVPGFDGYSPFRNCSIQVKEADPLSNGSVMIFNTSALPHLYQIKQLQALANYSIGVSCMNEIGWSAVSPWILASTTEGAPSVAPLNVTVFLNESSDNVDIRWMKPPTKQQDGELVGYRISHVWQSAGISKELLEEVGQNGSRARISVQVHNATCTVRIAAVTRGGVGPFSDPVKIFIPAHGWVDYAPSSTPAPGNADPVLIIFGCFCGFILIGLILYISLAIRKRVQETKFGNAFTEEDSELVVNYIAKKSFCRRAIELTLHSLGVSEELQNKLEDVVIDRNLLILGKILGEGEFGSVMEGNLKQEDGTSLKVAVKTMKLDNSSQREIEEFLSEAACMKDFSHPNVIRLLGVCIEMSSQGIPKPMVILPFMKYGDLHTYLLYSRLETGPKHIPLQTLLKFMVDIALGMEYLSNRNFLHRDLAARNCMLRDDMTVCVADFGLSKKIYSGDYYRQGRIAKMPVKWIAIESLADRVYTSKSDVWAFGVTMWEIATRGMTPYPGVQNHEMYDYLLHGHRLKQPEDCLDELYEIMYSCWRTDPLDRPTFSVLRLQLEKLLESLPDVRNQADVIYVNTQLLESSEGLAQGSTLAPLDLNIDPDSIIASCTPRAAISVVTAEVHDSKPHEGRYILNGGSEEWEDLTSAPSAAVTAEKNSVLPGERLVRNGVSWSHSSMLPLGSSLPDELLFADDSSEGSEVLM
Sequence of Fes (P07332 whole entry, looked up, the tested form may be a part): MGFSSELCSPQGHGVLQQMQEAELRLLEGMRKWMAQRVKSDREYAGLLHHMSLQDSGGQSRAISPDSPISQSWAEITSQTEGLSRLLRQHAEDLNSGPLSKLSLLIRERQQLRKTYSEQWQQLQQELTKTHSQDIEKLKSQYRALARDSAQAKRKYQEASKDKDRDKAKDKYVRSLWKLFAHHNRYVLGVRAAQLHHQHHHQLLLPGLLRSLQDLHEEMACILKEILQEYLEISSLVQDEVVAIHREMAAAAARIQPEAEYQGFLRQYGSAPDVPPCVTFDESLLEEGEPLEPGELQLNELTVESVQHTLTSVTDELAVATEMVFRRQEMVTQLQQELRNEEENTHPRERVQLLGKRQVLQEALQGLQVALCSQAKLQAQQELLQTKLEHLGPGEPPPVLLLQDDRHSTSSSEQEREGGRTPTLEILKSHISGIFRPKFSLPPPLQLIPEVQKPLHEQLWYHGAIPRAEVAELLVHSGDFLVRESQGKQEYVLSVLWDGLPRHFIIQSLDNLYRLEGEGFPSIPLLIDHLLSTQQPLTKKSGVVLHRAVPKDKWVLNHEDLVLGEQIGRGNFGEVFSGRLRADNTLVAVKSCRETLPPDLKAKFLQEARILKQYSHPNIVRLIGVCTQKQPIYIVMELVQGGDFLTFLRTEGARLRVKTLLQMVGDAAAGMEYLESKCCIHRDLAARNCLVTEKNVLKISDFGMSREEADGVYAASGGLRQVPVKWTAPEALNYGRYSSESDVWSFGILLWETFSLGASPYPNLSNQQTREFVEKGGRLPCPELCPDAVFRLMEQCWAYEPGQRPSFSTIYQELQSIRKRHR
Sequence of Jak2 (O60674 whole entry, looked up): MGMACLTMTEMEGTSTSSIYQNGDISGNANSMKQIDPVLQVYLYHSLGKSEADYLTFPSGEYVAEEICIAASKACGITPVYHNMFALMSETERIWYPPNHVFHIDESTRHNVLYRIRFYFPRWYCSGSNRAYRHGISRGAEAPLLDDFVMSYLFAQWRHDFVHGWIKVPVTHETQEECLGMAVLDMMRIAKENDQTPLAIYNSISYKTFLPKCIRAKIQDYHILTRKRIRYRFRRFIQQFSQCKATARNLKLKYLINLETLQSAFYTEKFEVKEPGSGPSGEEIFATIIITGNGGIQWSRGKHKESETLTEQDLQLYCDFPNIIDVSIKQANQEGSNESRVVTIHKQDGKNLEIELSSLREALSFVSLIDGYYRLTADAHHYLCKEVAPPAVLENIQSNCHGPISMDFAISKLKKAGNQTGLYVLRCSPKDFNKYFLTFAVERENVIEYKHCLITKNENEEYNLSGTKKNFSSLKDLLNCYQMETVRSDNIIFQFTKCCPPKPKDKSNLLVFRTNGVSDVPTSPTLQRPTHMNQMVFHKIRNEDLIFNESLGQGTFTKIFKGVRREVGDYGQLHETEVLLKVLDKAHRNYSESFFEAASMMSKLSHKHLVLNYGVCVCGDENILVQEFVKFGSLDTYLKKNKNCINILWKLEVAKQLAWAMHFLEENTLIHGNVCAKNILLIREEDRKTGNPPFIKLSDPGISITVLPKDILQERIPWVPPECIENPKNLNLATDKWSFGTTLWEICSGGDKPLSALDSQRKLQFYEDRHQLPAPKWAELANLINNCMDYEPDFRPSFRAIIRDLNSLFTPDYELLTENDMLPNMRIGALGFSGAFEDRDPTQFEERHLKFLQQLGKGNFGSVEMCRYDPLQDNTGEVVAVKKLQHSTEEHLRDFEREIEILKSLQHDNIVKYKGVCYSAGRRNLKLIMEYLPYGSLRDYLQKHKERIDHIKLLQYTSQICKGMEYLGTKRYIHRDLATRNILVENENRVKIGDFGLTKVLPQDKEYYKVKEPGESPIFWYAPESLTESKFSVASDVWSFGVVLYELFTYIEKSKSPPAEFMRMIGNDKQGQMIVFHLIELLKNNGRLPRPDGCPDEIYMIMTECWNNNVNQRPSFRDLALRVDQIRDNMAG
Sequence of EPHB2 (P29323 whole entry, looked up): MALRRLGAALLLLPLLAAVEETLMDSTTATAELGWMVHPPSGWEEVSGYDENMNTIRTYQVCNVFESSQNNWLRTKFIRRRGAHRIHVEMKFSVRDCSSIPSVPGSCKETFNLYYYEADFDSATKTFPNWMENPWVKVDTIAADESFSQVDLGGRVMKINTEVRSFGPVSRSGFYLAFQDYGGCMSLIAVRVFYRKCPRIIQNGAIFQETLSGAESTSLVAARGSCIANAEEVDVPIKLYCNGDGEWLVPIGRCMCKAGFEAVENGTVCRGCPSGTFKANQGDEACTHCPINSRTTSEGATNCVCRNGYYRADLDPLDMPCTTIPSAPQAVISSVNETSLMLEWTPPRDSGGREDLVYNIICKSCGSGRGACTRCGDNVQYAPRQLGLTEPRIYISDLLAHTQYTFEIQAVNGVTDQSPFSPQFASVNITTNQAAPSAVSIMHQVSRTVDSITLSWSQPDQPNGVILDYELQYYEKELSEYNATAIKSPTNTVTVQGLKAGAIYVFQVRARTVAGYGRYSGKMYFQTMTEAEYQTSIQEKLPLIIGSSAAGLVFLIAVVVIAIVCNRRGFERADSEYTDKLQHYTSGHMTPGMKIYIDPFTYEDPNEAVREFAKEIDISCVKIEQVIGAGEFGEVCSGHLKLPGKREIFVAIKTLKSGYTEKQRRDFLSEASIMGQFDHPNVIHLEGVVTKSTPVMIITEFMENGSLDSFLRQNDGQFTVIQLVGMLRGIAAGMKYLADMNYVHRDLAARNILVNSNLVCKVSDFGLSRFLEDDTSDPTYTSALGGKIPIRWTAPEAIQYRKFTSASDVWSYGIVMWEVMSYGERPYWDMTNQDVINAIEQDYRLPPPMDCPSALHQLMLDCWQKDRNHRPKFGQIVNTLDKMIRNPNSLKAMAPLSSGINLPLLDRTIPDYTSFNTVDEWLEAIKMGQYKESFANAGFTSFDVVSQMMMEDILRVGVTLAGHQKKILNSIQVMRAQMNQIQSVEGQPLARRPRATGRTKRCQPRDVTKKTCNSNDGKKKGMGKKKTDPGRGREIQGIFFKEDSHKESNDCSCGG

Row | SH2 binding enrichment [1] | SH2 binding enrichment [2] | SH2 binding enrichment [3] | Sequence | phosphorylation enrichment [4] | phosphorylation enrichment [5] | phosphorylation enrichment [6] | phosphorylation enrichment [7] | phosphorylation enrichment [8] | phosphorylation enrichment [9] | phosphorylation enrichment [10] | phosphorylation enrichment [11] | phosphorylation enrichment [12] | phosphorylation enrichment [13] | phosphorylation enrichment [14] | phosphorylation enrichment [15] | phosphorylation enrichment [16]
1 | 0.76 | 0.869 | 0.553 | ADVLDYIKALN [HPRT1_Y81_L78V] | 0.532 | 0.507 | 0.542 | 0.534 | 0.629 | 0.459 | 0.489 | 0.415 | 0.756 | 0.467 | 0.748 | 0.463 | 0.814
2 | 0.729 | 0.698 | 2 | DPTNTYARPAE [SGMS2_Y24] | 0.598 | 0.457 | 0.516 | 0.581 | 0.481 | 0.466 | 0.506 | 0.33 | 1.02 | 0.696 | 0.639 | 0.372 | 0.785
3 | 1.03 | 2.31 | 4.64 | PSELFYSKIGP [SMG1_Y2254_YF] | 5.34 | 3.97 | 15.5 | 2.08 | 3.84 | 2.31 | 10.6 | 10.4 | 1.21 | 2.46 | 2.1 | 5.2 | 1.2
4 | 0.693 | 0.794 | 0.506 | FSNVLYRPRGP [TMIGD2_Y197_A202P_YF] | 0.367 | 0.438 | 0.434 | 0.399 | 0.444 | 0.429 | 0.479 | 0.397 | 0.549 | 0.568 | 0.959 | 0.463 | 0.674
5 | 1.1 | 0.954 | 0.708 | LADKPYTFEDF [FXN_Y118_YF] | 2.21 | 7.15 | 1.39 | 1.86 | 2 | 1.43 | 1.26 | 1.96 | 2.9 | 0.738 | 0.988 | 3.9 | 2.52
6 | 0.96 | 0.955 | 0.572 | NTDETYCIDNK [TUBB3_Y200_E205K] | 0.53 | 0.781 | 0.407 | 0.577 | 0.783 | 0.721 | 0.592 | 0.729 | 1.23 | 0.834 | 1.37 | 0.976 | 1.34
7 | 1.27 | 1.29 | 0.992 | PLRANYLIARV [HLCS_Y635_D634N] | 0.707 | 0.769 | 0.716 | 0.861 | 0.853 | 1.12 | 0.763 | 0.7 | 0.927 | 2.74 | 1.27 | 1.01 | 1.12
8 | 0.61 | 0.47 | 0.3 | ARRHPYFYAPE [ALB_Y172] | 1.87 | 0.641 | 0.893 | 0.553 | 1.08 | 0.488 | 0.575 | 0.58 | 0.883 | 0.605 | 0.8 | 0.972 | 0.766
9 | 0.809 | 0.462 | 0.578 | FQKNIYSEEPR [LMNA_Y211_L215P] | 0.478 | 1.02 | 1.73 | 0.443 | 0.582 | 0.438 | 0.763 | 0.454 | 0.773 | 0.477 | 0.717 | 1.54 | 0.871
10 | 0.847 | 0.815 | 0.521 | LFLASYCIGGG [UBD_Y161_C160S] | 1.06 | 0.416 | 0.537 | 0.788 | 1.04 | 0.655 | 0.533 | 0.671 | 1.22 | 0.886 | 1.21 | 0.495 | 1.63
11 | 1.59 | 2.07 | 1.15 | NFDRIYIFHLR [MYOF_Y1137_V1136I_YF] | 0.594 | 0.605 | 0.524 | 0.705 | 0.791 | 0.732 | 0.507 | 0.606 | 1.53 | 0.993 | 1.46 | 0.724 | 1.42
12 | 0.876 | 0.613 | 0.534 | FIPFRYPKEFQ [IDS_Y234_H229Y_YF] | 0.465 | 0.469 | 0.409 | 0.494 | 0.516 | 0.316 | 0.469 | 0.323 | 0.705 | 0.595 | 0.548 | 0.565 | 0.883
13 | 1.3 | 1.16 | 0.855 | FRSSLYLLMET [MYO5C_Y633] | 0.724 | 0.473 | 1.46 | 0.591 | 1.16 | 0.804 | 0.576 | 0.687 | 1.24 | 0.896 | 1.29 | 0.521 | 1.37
14 | 0.849 | 0.794 | 0.431 | HNVPIYEGFAL [ACTA1_Y168_YF] | 0.649 | 15.1 | 12.4 | 28.1 | 0.785 | 22.5 | 14.1 | 22.7 | 1.59 | 23.5 | 0.894 | 10.6 | 7.74
15 | 1.12 | 0.956 | 0.97 | NHYKICNLCAE [PTEN_Y68_Y68C] | 0.488 | 0.4 | 0.45 | 0.395 | 0.519 | 0.376 | 0.378 | 0.384 | 0.663 | 0.571 | 0.613 | 0.372 | 0.691
16 | 0.733 | 0.628 | 0.338 | RKKLFYKADGE [SERPINC1_Y272_E269K] | 0.528 | 0.621 | 0.531 | 0.579 | 0.473 | 0.34 | 0.657 | 0.587 | 0.624 | 0.894 | 0.732 | 0.778 | 0.648
17 | 1.06 | 0.623 | 0.635 | ERCAQYKKDGA [ALDOA_Y138] | 0.438 | 0.394 | 0.368 | 0.487 | 0.484 | 0.409 | 0.396 | 0.341 | 0.612 | 0.496 | 0.622 | 0.391 | 0.574
